# Measurements taken from US20040053310, “Exhaustive selection of RNA aptamers against complex targets” (published 2004).
# T1: heat shock factor (HSF) (UniProt P22813 P22813:1-691)
# T1 sequence: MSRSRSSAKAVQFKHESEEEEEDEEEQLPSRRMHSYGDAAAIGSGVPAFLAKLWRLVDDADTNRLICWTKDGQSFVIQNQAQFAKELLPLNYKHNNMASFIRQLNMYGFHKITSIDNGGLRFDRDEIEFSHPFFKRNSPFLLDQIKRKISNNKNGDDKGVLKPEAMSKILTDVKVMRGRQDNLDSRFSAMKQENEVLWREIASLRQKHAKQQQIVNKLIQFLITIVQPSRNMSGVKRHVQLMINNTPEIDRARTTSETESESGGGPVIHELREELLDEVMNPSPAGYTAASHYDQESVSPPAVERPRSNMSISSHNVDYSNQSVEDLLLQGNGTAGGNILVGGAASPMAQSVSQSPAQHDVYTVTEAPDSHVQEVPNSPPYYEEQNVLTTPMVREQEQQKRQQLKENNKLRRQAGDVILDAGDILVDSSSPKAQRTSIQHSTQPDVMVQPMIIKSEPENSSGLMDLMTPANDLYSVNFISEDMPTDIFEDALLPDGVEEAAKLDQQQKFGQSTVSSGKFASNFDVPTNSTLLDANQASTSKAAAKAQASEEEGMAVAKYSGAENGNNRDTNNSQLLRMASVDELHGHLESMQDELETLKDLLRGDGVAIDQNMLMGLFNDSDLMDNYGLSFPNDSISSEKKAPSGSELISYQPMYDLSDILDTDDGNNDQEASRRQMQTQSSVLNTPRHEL
# B1: RA1-HSF (14-1) (ssRNA)
# RNA: GGGAGAAUUCAACUGCCAUCUAGGCAUCGCGAUACAAAAUUAAGUUGAACGCGAGUUCUCCAUCUAGUACUACAAGCUUCUGGACUCGAU
# Biological target: T1, heat shock factor (HSF)
# Assay: EMSA; estimated from EMSA data; construct not given
# Details: tags: fusion construct from E. coli (GST, His or MBP; exact one not specified for this assay); chain copies: 3
binder,measurement,value
B1,Kd,20 nM
